Assay results reported in PMC12363564, “Modulation of the PTPRS proteoglycan switch by antibodies binding to the membrane-proximal fibronectin-type III domain” (The Journal of Biological Chemistry, 2025).

Biological target: T1, C-terminally 6xHis tagged mouse PTPRS (mPTPRS) ECD (Mus musculus, UniProt B0V2N1)
T1 construct: also called mPTPRS ectodomain; PTPRS ectodomain; source: HEK293T, transiently transfected, supernatant; purified (Ni-NTA, HiTrap heparin); not shown: His6, C-terminal, kept
Test: BLI; data not shown; 9H5 on C-terminally 6xHis tagged mPTPRS ECD immobilised on an anti-6xHis probe
Conditions: both partners purified

T1 sequence (B0V2N1 30-1257): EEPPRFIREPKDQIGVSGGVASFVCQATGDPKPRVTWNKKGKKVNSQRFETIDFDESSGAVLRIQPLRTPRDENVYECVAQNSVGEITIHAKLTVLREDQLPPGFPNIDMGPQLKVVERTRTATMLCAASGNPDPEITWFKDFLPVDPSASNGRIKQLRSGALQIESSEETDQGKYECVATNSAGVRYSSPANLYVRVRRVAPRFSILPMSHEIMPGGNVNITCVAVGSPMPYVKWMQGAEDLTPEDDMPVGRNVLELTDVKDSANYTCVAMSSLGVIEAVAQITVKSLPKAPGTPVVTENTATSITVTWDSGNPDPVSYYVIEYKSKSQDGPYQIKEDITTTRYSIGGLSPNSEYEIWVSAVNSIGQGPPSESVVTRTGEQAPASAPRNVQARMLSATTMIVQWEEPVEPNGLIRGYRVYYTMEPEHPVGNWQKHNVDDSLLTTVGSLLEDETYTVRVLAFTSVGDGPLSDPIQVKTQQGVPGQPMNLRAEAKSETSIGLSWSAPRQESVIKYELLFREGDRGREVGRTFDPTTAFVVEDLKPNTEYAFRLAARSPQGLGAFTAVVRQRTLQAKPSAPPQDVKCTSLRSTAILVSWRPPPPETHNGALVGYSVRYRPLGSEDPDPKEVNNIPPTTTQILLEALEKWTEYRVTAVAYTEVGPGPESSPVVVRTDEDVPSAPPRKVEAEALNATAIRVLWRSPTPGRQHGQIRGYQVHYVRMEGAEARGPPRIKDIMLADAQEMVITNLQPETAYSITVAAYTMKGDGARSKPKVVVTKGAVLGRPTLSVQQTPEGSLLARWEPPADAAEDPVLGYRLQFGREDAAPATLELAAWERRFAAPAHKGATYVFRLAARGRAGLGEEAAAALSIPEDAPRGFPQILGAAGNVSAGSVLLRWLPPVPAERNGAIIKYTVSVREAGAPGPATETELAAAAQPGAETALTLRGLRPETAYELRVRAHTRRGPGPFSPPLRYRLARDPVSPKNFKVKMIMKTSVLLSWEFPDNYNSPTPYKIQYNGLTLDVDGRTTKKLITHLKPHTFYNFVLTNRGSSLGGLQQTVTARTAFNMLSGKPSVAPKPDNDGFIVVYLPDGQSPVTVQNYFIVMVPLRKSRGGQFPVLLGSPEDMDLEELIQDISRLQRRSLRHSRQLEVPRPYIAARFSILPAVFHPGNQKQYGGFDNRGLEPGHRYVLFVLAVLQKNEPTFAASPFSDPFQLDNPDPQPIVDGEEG

binding result: no binding
B1: 9H5 (mouse monoclonal antibody, IgG1/κ) (antibody, V domains shown)
VH: QVQLVETGGGLVRPGNSLKLSCVTSGFTFSNYRMHWLRQPPGKRLEWIAVITVKSDNYGANYAESVKGRFTISRDDSKSSVYLQMNRLREEDTATYYCSRSVYYGYVLAFDYWGQGTTLTVSS
VL: DIQMTQTTSSLSASLGDRVTISCRASQDISNYLNWYQQKPDGTVKLLIYYTSRLHSGVPSRFSGSGSGTDYSLTISNLEQEDIATYFCQQGNTLPWTFGGGTKLEIK
notes: VH of 9H5; constant region of the mouse IgG1 heavy chain; VL of 9H5; constant region of the mouse κ light chain; IgG1/κ; source: production contracted to Viva Biotech
